The target of one assay is T1, FVII(a) variant R113A (human, UniProt P08709 61-466).
T1 construct: hFVII alanine variant in cell culture supernatant
T1 sequence: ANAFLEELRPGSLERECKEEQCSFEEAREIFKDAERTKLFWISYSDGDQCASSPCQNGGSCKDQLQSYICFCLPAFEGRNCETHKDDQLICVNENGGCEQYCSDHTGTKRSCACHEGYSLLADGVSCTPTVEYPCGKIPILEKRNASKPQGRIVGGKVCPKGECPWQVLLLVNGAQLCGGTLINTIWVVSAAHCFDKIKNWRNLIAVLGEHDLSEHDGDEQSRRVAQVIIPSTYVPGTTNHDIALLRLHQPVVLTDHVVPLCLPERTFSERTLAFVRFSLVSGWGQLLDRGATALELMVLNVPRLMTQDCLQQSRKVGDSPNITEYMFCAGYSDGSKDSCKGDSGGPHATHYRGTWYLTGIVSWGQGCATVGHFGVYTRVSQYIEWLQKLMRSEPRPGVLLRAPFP
The assay can be described thus: SPR, Biacore T200, 25 C; FVII(a) variant captured on anti-Gla Ab 4F6, mAb0842(OA) injected. (In general: SPR reads the build-up and loss of mass on a sensor chip optically.)

The target in a further assay is T2, FVII(a) variant M391A (human, UniProt P08709 61-466).
T2 construct: hFVII alanine variant in cell culture supernatant
T2 sequence: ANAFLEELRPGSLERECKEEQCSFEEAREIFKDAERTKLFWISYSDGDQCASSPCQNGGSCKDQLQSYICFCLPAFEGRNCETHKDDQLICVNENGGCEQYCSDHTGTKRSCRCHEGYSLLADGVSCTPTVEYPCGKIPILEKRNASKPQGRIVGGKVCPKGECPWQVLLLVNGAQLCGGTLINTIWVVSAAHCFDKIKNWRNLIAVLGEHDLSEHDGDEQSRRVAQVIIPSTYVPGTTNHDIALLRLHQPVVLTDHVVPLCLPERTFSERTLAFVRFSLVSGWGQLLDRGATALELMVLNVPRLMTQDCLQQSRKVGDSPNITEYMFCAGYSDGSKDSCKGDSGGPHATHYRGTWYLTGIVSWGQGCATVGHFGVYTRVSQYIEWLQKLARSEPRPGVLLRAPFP
The description is as above.

The next assay deals with T3, FVII(a) variant V131A (human, UniProt P08709 61-466).
T3 construct: hFVII alanine variant in cell culture supernatant
T3 sequence: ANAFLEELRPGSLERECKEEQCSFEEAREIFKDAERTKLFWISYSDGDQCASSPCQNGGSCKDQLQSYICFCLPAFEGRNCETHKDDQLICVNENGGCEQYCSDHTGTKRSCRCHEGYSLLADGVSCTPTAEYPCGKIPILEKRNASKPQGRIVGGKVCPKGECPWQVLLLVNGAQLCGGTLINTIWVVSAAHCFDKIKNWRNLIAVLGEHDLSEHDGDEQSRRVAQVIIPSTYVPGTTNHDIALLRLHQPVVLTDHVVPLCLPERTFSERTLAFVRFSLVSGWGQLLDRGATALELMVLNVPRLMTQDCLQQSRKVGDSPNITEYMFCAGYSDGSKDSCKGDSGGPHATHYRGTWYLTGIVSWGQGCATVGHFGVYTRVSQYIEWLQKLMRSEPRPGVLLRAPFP
The description is as above.

For a further assay, the target named is T4, FVII(a) WT (human, UniProt P08709 61-466).
T4 construct: also called wild type human FVII(a)
T4 sequence: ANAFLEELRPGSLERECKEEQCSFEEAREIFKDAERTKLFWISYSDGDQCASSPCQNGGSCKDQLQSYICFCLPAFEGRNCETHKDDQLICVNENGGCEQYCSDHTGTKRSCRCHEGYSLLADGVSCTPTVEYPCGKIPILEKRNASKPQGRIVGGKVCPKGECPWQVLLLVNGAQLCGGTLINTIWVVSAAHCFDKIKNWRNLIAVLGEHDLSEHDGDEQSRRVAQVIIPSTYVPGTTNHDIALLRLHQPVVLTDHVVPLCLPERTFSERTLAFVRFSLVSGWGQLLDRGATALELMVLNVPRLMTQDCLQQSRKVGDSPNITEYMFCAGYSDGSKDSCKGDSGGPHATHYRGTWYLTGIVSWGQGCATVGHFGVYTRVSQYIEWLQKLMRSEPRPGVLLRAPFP
The assay can be described thus: SPR, Biacore T200, 25 C; FVII(a) captured on anti-Gla Ab 4F6, mAb0842(OA) injected. On the procedure:
(§1) The running buffer was prepared by diluting 10-fold the 10×HBS-P buffer (supplied by GE Healthcare) and supplemented with 1 mg/ml BSA and 5 mM CaCl2 to give 10 mM HEPES, 150 mM NaCl, 0.05% v/v Polysorbate 20, pH 7.4, 5 mM CaCl2, 1 mg/ml bovine serum albumin (BSA). […] Regeneration of the chip was achieved using 10 mM HEPES, 150 mM NaCl, 20 mM EDTA, 0.05 v/v Polysorbate 20, pH 7.4. Binding data were analysed according to a 1:1 Kinetic model and steady state analysis using BiaEvaluation 4.1 supplied by the manufacturer (Biacore AB, Uppsala, Sweden). Wherever possible, ka, kd and KD values from 1:1 kinetic fitting model are reported. […] An amino acid residue is considered a hot-spot residue if substitution of that amino acid residue with alanine results in an affinity reduction of ten (10) fold or more relative to the wild type.

The next assay concerns the target T5, FVII(a) variant H115A (human, UniProt P08709 61-466).
T5 construct: hFVII alanine variant in cell culture supernatant
T5 sequence: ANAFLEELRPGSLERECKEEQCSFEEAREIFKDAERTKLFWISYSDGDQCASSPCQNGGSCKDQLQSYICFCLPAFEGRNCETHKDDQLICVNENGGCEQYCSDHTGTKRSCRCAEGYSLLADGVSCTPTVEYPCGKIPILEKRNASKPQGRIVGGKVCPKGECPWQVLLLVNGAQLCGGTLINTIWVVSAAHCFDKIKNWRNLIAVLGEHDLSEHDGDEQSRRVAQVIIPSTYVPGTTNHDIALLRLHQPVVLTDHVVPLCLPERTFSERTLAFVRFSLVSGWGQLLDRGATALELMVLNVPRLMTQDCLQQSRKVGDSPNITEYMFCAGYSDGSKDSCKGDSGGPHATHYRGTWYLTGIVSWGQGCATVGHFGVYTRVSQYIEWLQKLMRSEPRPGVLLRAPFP
Nature of the assay: SPR, ratio of KD to KD of WT. On the procedure:
as §1

The Kd is a measure of binding affinity in units of concentration. A high value points to weaker binding.

B1: mAb0842(OA) (antibody, human IgG4 S228P, kappa)
heavy: QVQLQESGPGLVKPSQTLSLTCTVSGYSISSDSAWSWIRQPPGKGLEWIGYIQYSGSTNYNPSLKSRVTISRDTSKNQFSLKLSSVTAADTAVYYCARSVNYYGNSFAVGYWGQGTLVTVSSASTKGPSVFPLAPCSRSTSESTAALGCLVKDYFPEPVTVSWNSGALTSGVHTFPAVLQSSGLYSLSSVVTVPSSSLGTKTYTCNVDHKPSNTKVDKRVESKYGPPCPPCPAPEFLGGPSVFLFPPKPKDTLMISRTPEVTCVVVDVSQEDPEVQFNWYVDGVEVHNAKTKPREEQFNSTYRVVSVLTVLHQDWLNGKEYKCKVSNKGLPSSIEKTISKAKGQPREPQVYTLPPSQEEMTKNQVSLSCAVKGFYPSDIAVEWESNGQPENNYKTTPPVLDSDGSFFLVSRLTVDKSRWQEGNVFSCSVMHEALHNHYTQKSLSLSLGK
light: EIVLTQSPATLSLSPGERATLSCRASQGISDYLHWYQQKPGEAPRLLIKYTSQPATGIPARFSGSGSGTDFTLTISSLEPEDFAVYYCQNGHSFPLTFGQGTKLEIKRTVAAPSVFIFPPSDEQLKSGTASVVCLLNNFYPREAKVQWKVDNALQSGNSQESVTEQDSKDSTYSLSSTLTLSKADYEKHKVYACEVTHQGLSSPVTKSFNRGEC
chain: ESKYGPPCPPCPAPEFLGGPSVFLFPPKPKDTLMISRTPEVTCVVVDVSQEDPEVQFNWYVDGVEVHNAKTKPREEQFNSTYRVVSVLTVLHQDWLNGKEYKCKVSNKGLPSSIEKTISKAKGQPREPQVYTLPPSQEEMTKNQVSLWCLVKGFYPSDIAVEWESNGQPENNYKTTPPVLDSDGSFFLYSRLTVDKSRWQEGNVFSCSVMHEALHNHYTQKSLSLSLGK
notes: also called monovalent humanized 11F2 antibody; one-armed anti-FVII(a) antibody
B1: the Kd in the assay with FVII(a) variant R113A was 0.29 nM; with FVII(a) variant M391A it was 0.25 nM; with FVII(a) variant V131A it was 5.22 nM; in the assay with FVII(a) WT, 0.31 nM. In the assay with FVII(a) variant H115A, the “Fold diff (Variant/WT)” value turned out to be 26.8 fold.

The record behind these values is US20220064329A1 (Novo Nordisk, published 2022).
